Patent US20080015137A1 (University of Texas, published 2008)
No end group written: not given here.

T1: Karyopherin beta2 (Kapβ2), full length, wild type (human, UniProt Q92973-2 1-890)
T1 construct: mature; Expressed as a GST fusion from pGEX-Tev and purified; Also used here for the Kapβ2 added in the GST pull-downs; also called Transportin
T1 sequence (looked up): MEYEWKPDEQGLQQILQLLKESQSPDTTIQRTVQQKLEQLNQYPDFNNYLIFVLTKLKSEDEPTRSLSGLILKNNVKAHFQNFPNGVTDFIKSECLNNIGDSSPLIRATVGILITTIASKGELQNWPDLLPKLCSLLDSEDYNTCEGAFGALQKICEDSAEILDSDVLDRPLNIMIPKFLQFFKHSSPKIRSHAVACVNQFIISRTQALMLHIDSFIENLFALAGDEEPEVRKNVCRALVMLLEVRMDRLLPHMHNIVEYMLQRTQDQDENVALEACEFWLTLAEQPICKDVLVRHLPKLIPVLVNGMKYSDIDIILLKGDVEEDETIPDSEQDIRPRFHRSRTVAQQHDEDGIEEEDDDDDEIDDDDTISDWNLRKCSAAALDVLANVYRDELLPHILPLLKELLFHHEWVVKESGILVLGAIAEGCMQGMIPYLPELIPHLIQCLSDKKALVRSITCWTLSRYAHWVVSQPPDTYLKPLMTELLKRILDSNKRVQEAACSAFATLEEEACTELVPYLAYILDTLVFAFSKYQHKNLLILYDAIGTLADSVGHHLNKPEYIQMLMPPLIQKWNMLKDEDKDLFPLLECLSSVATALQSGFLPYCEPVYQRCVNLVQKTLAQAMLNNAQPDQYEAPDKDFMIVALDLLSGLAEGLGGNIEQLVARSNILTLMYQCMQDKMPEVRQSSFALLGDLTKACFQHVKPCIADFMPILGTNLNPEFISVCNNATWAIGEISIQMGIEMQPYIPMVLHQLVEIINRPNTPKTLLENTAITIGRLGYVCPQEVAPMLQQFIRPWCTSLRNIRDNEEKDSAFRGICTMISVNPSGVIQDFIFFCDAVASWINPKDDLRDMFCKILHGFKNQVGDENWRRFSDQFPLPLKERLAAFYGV


Columns and labels:
[1] = biological target: T1, Karyopherin beta2 (Kapβ2), full length, …; experiment: ITC; MBP-hnRNP M(41-70) titrated into full-length Kapβ2
Procedure: (§1) Quantitation of binding affinity with Isothermal Titration Calorimetry. Binding affinities for wild type and mutant MBP-hnRNP M-NLS were determined using Isothermal titration calorimetry (ITC). The experiments were performed using a MicroCal Omega VP-ITC calorimeter (MicroCal Inc., Northampton, Mass.). MBP-NLS proteins were dialyzed against buffer containing 20 mM Tris pH 7.5, 100 mM NaCl and 2 mM β-mercaptoethanol. […] All ITC experiments were done at 20° C. with 35 rounds of 8 μl injections. Data were plotted and analyzed using the single binding site model of MicroCal Origin software version 7.0.

[2] = biological target: T1, Karyopherin beta2 (Kapβ2), full length, …; experiment: ITC; MBP-hnRNP M(41-70) mutant titrated into full-length Kapβ2
Procedure: as §1

[3] = biological target: T1, Karyopherin beta2 (Kapβ2), full length, …; experiment: ITC; MBP-hnRNP M(41-70) mutant titrated into full-length Kapβ2; unit cell prints only n
Procedure: as §1

[4] = biological target: T1, Karyopherin beta2 (Kapβ2), full length, …; experiment: competition ITC; repeat with 20 µM MBP-hnRNP A1-NLS R284A/P288A/Y289A as displacement ligand
[5] = biological target: T1, Karyopherin beta2 (Kapβ2), full length, …; experiment: competition ITC (107 pM versus 20 nM for hnRNP A1-NLS)
[6] = biological target: T1, Karyopherin beta2 (Kapβ2), full length, …; experiment: competition ITC; 108 µM MBP-M9M titrated into 12 µM Kapβ2 with 18 µM MBP-hnRNP A1-NLS R284A/P288A/Y289A as displacement ligand
[7] = biological target: T1, Karyopherin beta2 (Kapβ2), full length, …; experiment: competition ITC (control); 154 µM MBP-hnRNP A1-NLS titrated into 12 µM Kapβ2 with MBP-hnRNP A1-NLS R284A/P288A/Y289A as displacement ligand
[8] = biological target: T1, Karyopherin beta2 (Kapβ2), full length, …; experiment: ITC; MBP-M9NLS(257-305) titrated into full length Kapβ2
Procedure: Substrate residues that make two or more sidechain contacts with Kapβ2 (F273, F281, R284, P288 and Y289) were systematically mutated to alanines.
The ITC studies used a MicroCal Omega VP-ITC calorimeter (MicroCal Inc., Northampton, Mass.). Proteins were dialyzed against buffer containing 20 mM Tris pH 7.5, 100 mM NaCl and 2 mM P-mercaptoethanol. […] Most ITC studies were done at 20° C. with 35 rounds of about 8 μl injections. […] Data was plotted and analyzed using MicroCal Origin software version 7.0, with a single binding site model.

Row | Binder | Kd [2] [nM] | also measured
1 | ERPAQNEKRKEKNIKRGGNRFEPYANPTKR (other, human, UniProt P52272 41-70, looked up, not shown: large carriers, also: MBP fusion partner, not in chain, range 41-70; also called MBP-hnRNP M-NLS; hnRNP M-NLS) [MBP-hnRNP M(41-70) wild type] |  | Kd [1]: 10 nM
2 | ERPAQNEKRKEKNIKRGGNRFEPYANATKR (other, not shown: large carriers; small tags and cut ends, also: MBP fusion partner, not in chain) [MBP-hnRNP M(41-70) P67A] |  | Kd [3]: 8.7 nM
3 | ERPAQNEKRKEKNIKRGGNRFEAAANPTKR (other, not shown: large carriers; small tags and cut ends, also: MBP fusion partner, not in chain) [MBP-hnRNP M(41-70) P63A/Y64A] | 4500 | 
4 | ERPAQNEKRKEKNIKRGGNRAEAAANPTKR (other, not shown: large carriers; small tags and cut ends, also: MBP fusion partner, not in chain) [MBP-hnRNP M(41-70) F61A/P63A/Y64A] | 8600 | 
5 | GPGYSGGSRGYGSGGQGYGNQGSGYGGSFEPYANPTKR (designed binder) [MBP-M9M] |  | Kd [4]: 0.111 nM; fold tighter binding against natural NLS (hnRNP A1-NLS) [5]: 200 fold; Kd [6]: 0.107 nM
6 | GGSYNDFGNYNNQSSNFGPMKGGNFGGRSSGPYGGGGQYFAKPRNQGGY (other, human, UniProt P09651-2 257-305, looked up, not shown: large carriers, MBP fusion of the NLS peptide; also called MBP-hnRNP A1-NLS; wildtype hnRNP A1-NLS) [MBP-M9NLS(257-305) wild type] |  | Kd [7]: 20 nM; Kd [8]: 42 nM

The remaining binders from weak to strong by Kd [2], led by results:

Row | Kd [2] [nM] | Binder | also measured
7 | 1200 | ERPAQNEKRAAAAAAAGGNRFEPYANPTKR (other, not shown: large carriers; small tags and cut ends, also: MBP fusion partner, not in chain, also called all seven residues of 50KEKNIKR56 mutated to alanines) [MBP-hnRNP M(41-70) K50A/E51A/K52A/N53A/I54A/K55A/R56A] | 
8 | 22.3 | ERPAQNEKRAAAAIKRGGNRFEPYANPTKR (other, not shown: large carriers; small tags and cut ends, also: MBP fusion partner, not in chain, also called quadruple 50KEKN53/AAAA hnRNP M mutant) [MBP-hnRNP M(41-70) K50A/E51A/K52A/N53A] | 
9 | 17.1 | ERPAQNEKRKEKAIKRGGNRFEPYANPTKR (other, not shown: large carriers; small tags and cut ends, also: MBP fusion partner, not in chain) [MBP-hnRNP M(41-70) N53A] | 
10 | 16.4 | ERPAQNEKRAEKNIKRGGNRFEPYANPTKR (other, not shown: large carriers; small tags and cut ends, also: MBP fusion partner, not in chain) [MBP-hnRNP M(41-70) K50A] | 
11 | 14.6 | ERPAQNEKRKEANIKRGGNRFEPYANPTKR (other, not shown: large carriers; small tags and cut ends, also: MBP fusion partner, not in chain) [MBP-hnRNP M(41-70) K52A] | 
12 | 13.9 | ERPAQNEKRKEKNIKAGGNRFEPYANPTKR (other, not shown: large carriers; small tags and cut ends, also: MBP fusion partner, not in chain) [MBP-hnRNP M(41-70) R56A] | 
13 | 11.2 | ERPAQNEKRKEKNIKRGGNRAEPYANPTKR (other, not shown: large carriers; small tags and cut ends, also: MBP fusion partner, not in chain) [MBP-hnRNP M(41-70) F61A] | 
14 | 8.8 | ERPAQNEKRKEKNAKRGGNRFEPYANPTKR (other, not shown: large carriers; small tags and cut ends, also: MBP fusion partner, not in chain) [MBP-hnRNP M(41-70) I54A] | 
15 | 7.6 | ERPAQNEKRKEKNIARGGNRFEPYANPTKR (other, not shown: large carriers; small tags and cut ends, also: MBP fusion partner, not in chain) [MBP-hnRNP M(41-70) K55A] | 
